Measured values from PMC6356446, “Involvement of N-glycan in Multiple Receptor Tyrosine Kinases Targeted by Ling-Zhi-8 for Suppressing HCC413 Tumor Progression” (Cancers, 2018).

Tests used:
Assay in all cases: cell-based or functional assay
c-Met = c-Met (human (endogenous in HCC413), UniProt P08581 25-1390, N-glycans (sites not given))
EGFR = EGFR (human (endogenous in HCC413), UniProt P00533 25-1210, N-glycans (sites not given))
HER3 = HER3 (human (endogenous in HCC413), UniProt P21860 20-1342, N-glycans (sites not given))
Sequence of HER3 (P21860 20-1342): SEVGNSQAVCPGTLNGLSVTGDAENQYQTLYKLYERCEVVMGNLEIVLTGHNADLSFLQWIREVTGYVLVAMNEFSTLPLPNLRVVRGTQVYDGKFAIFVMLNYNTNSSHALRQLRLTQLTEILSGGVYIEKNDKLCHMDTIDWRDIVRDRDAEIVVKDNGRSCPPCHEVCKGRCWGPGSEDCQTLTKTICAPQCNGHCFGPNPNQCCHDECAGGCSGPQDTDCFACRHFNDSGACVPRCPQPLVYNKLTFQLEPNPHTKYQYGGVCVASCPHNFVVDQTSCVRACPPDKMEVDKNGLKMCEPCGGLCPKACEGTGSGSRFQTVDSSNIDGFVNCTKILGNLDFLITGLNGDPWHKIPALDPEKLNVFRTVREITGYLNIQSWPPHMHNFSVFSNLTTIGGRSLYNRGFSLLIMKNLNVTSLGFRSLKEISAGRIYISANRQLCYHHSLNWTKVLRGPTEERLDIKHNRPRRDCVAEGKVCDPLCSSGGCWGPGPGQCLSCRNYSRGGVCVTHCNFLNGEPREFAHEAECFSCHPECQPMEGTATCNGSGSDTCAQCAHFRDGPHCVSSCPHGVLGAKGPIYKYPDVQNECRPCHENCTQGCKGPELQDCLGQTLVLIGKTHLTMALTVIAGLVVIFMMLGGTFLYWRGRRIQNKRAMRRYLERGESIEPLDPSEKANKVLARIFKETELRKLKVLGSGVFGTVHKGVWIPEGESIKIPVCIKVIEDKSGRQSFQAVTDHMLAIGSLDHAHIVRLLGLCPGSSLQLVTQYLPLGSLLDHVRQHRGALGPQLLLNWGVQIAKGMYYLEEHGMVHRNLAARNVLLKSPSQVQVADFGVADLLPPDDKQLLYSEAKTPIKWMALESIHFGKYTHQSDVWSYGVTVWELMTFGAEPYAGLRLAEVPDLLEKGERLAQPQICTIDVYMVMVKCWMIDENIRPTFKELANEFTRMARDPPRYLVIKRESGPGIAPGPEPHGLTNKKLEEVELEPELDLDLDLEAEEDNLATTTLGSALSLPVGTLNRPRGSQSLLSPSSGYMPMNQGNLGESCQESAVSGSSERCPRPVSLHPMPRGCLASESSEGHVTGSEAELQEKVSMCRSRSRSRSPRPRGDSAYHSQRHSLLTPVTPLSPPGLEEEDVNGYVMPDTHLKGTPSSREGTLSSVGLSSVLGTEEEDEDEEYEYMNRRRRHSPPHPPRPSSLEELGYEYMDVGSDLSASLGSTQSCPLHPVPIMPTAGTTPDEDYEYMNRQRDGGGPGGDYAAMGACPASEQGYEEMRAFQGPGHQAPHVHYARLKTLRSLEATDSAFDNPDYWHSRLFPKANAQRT

Sequence of c-Met (P08581 25-1390): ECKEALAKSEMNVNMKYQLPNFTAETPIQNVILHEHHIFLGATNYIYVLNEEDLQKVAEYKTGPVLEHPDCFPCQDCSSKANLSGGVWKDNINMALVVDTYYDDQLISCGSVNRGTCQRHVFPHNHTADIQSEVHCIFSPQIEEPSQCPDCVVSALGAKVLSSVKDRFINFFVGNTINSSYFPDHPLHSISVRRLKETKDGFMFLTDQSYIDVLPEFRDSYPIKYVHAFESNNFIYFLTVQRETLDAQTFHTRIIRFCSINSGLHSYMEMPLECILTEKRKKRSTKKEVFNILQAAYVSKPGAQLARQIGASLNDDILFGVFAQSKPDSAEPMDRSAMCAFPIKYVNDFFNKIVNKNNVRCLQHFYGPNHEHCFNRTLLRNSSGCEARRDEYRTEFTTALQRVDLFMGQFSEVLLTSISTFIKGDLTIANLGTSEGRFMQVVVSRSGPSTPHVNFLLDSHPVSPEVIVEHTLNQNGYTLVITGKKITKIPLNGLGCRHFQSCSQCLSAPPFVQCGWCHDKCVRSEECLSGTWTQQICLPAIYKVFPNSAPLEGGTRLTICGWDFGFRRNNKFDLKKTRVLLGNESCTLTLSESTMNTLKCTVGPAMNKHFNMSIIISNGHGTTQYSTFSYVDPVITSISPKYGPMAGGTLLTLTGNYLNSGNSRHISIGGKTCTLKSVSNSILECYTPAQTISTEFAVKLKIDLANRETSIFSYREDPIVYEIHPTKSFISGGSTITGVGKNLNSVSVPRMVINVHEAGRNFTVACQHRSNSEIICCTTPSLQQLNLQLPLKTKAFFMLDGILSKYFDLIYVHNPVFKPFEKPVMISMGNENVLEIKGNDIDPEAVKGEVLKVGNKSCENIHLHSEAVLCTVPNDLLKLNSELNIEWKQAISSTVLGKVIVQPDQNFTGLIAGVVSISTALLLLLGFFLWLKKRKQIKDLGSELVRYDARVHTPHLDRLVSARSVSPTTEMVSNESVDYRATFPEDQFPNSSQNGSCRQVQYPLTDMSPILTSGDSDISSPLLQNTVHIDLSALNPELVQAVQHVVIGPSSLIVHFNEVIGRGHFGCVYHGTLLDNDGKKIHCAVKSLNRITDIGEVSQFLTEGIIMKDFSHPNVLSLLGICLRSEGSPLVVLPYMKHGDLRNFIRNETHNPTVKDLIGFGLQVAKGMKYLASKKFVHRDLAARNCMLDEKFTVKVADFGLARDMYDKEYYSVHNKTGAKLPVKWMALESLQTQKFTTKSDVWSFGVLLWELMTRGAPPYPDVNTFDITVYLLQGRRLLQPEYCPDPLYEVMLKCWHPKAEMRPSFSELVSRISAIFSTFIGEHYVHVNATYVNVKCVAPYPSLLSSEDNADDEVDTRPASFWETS

B1: Ling-Zhi-8 (natural protein, Ganoderma lucidium, UniProt P14945 1-111, looked up)
chain: MSDTALIFRLAWDVKKLSFDYTPNWGRGNPNNFIDTVTFPKVLTDKAYTYRVAVSGRNLGVKPSYAVESDGSQKVNFLEYNSGYGIADTNTIQVFVVDPDTNNDFIIAQWN
c-Met
  decrease in phosphorylated ERK in HCC413, LZ-8 0.2 and 0.8 uM, 24 h; Western blot: 85 to 90%
  phosphorylated JNK in HCC413, LZ-8 0.2 and 0.8 uM, 24 h; Western blot: 50%
  phosphorylated c-jun in HCC413, LZ-8 0.2 and 0.8 uM, 24 h; Western blot: 75%
EGFR
  decrease in phosphorylated ERK in HCC413, LZ-8 0.2 and 0.8 uM, 24 h; Western blot: 85 to 90%
  phosphorylated JNK in HCC413, LZ-8 0.2 and 0.8 uM, 24 h; Western blot: 50%
  phosphorylated c-jun in HCC413, LZ-8 0.2 and 0.8 uM, 24 h; Western blot: 75%
HER3
  decrease in phosphorylated ERK in HCC413, LZ-8 0.2 and 0.8 uM, 24 h; Western blot: 85 to 90%
  phosphorylated JNK in HCC413, LZ-8 0.2 and 0.8 uM, 24 h; Western blot: 50%
  phosphorylated c-jun in HCC413, LZ-8 0.2 and 0.8 uM, 24 h; Western blot: 75%
